One assay addresses T1, TG3 (human, UniProt Q08188).
T1 construct: recombinant, Zedira; also called recombinant human TG3; Epidermal Transglutaminase
T1 sequence (enzyme, looked up): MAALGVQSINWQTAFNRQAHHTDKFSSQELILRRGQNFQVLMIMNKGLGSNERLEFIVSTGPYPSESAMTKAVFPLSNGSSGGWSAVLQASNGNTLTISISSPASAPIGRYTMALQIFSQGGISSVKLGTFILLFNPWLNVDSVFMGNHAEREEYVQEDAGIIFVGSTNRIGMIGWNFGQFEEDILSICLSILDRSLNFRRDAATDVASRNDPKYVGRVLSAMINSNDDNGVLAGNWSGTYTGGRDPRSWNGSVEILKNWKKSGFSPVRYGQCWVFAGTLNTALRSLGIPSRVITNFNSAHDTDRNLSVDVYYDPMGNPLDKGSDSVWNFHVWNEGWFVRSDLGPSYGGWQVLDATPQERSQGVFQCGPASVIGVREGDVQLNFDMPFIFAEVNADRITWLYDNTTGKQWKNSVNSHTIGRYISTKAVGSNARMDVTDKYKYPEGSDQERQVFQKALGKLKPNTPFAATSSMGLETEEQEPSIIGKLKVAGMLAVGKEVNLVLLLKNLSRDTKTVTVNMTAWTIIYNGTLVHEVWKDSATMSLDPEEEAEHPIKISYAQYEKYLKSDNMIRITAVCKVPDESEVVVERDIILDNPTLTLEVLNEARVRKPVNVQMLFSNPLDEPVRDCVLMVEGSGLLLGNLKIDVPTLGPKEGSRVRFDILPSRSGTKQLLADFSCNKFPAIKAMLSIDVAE
Put plainly: ELISA, hybridoma conditioned medium, plates coated with recombinant TG (100 ng/well) [panel A]. As for the experimental part: (§1) Conditioned medium or purified IgG were tested for reactivity to transglutaminase family members. The ability of each to bind to each transglutaminase (TG1, TG2, TG3, TG5, TG7 and Factor XIIIa; all Zedira) was determined using a plate binding assay. Microtiter plates (Costar, Cambridge, UK) were coated with recombinant TG (Zedira, Darmstadt, Germany) in 50 μl of 0.1 M bicarbonate/carbonate buffer (pH 9.6) overnight at 4° C. Plates were blocked for 2 h at 37° C. with 200 μl PBS containing 3% w/v BSA. Plates were washed three times with PBS containing 0.05% Tween 20 (washing buffer) and 100 μl of diluted conditioned medium (dilution 1:5 to 1:20) or purified anti-TG2 catalytic core mAbs was added. Plates were incubated for a further 1 h at room temperature. The washing step was repeated and anti-mouse gamma chain-horseradish peroxidase (1:5000) in PBS containing 0.05% Tween 20 (v:v) and 1% BSA (w:v) (Sigma, Poole UK) was added for 1 h. […] The reaction was stopped by adding 25 μl of 0.1 M H_2SO_4 and the absorbance at 450 nm was determined.

The target in a further assay is T2, TG13.
T2 construct: also called Factor XIIIa
T2 chain: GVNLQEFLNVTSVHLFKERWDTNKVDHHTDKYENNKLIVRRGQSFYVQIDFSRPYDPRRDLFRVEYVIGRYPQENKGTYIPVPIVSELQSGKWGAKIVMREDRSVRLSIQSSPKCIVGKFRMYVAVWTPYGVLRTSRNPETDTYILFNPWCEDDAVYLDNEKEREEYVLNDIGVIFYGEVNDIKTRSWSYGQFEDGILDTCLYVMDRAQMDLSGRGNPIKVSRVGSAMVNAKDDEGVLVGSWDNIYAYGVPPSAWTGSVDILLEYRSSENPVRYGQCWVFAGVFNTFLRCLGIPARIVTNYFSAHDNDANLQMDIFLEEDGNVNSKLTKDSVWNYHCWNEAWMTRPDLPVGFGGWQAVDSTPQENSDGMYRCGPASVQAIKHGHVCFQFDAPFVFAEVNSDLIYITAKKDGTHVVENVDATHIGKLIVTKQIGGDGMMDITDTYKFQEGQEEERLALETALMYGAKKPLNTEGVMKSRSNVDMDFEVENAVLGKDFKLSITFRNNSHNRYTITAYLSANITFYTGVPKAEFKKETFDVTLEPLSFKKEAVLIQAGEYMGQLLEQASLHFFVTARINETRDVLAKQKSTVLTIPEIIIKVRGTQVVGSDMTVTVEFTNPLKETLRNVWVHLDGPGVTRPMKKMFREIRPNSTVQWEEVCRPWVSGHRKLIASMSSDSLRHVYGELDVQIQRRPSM
The description is as above. As for the experimental part:
as §1

For assay [1], the target named is T3, human transglutaminase type 2 (TG2) (human, UniProt P21980 1-687).
T3 sequence: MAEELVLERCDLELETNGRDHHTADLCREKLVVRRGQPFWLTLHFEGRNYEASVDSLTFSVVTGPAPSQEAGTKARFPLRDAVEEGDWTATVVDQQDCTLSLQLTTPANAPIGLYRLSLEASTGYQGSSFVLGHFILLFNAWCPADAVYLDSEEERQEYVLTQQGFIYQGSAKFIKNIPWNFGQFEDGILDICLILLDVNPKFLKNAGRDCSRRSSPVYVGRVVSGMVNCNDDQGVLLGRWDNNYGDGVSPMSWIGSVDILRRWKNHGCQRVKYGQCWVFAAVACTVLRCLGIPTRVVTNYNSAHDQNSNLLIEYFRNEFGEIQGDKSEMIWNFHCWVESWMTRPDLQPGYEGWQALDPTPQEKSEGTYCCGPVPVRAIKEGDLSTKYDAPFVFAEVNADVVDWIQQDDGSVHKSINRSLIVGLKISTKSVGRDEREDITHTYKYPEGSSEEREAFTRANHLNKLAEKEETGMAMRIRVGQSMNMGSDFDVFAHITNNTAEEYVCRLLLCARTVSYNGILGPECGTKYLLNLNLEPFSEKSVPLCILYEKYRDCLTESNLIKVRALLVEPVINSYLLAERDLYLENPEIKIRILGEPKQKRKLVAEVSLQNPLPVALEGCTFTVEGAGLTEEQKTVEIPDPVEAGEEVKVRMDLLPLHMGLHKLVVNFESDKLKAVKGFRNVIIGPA
Put plainly: cell-based or functional assay.

Experimental findings from US10005846 (LIFEARC, dated 2018) are described below.

B1: AG9 murine monoclonal antibody (antibody, V domains shown)
VH: EVQLQQSGPELVKPGASVKMSCRASGYTFTTYVIHWVKQKPGQGLEWIGYINPYNDGARYNEKFKGKATLTSDKSSTTAYMELSSLTSEDSAVYYCARLSSDYWGQGTTLTVSS
VL: DVLMTQNPLSLPVSLGDQASISCRSSRSIEHSNGNTYLEWYLQKPGQSPKFLIYKVSNRFSGVPDRFSGSGSGTDFTLRISSVEAEDLGVYYCFQGSHVPFTFGGGTKLEIK
notes: Mouse hybridoma IgG; heavy chain amplified with primer MHCG1, kappa light chain
Regarding B1, the binding result with TG3 and with TG13 was “no binding” in each case. Besides, the “IC50 of TG2 activity, 3H putrescine incorporation” value (shortened to “IC50 of TG2 activity”) in assay [1] came to 4.87e-05 mg/ml IgG per ng TG2.

B2: EH6 murine monoclonal antibody (antibody, V domains shown)
VH: EVQLQQSGPELVKPGASVKMSCKASGYTFTSYVMHWVKQKPGQGLEWIGFINPYNDGTKYNEKFKGKATLTSDKASTTAYMELSSLTSEDSAVYYCARFSSGYWGQGTTLTVSS
VL: DVLMTQTPLSLPVSLGDQASISCRSSQSIVHSNGNTYLEWYLQKPGQSPKLLIYKVSNRFSGVPDRFSGSGSGTDFTLKISRVGAEDLGVYYCLQVSHVPFTFGSGTKLEIK
notes: Mouse hybridoma IgG; heavy chain amplified with primer MHCG2B, kappa light chain
For the molecule B2, the binding result with TG3 and with TG13 was “no binding” throughout. For the same molecule, the “IC50 of TG2 activity” value in assay [1] turned out to be 6.9e-05 mg/ml IgG per ng TG2.

B3: AH3 murine monoclonal antibody (antibody, V domains shown)
VH: EVQLQQSGPELVKPGASVKMSCRASGYTFTTYVIHWVKQKPGQGLEWIGYINPYNDGARYNEKFKGKATLTSDKSSTTAYMELSSLTSEDSAVYYCARLSSDYWGQGTTLTVSS
VL: DVLMTQNPLSLPVSLGDQASISCRSSRSIEHSNGNTYLEWYLQKPGQSPKFLIYKVSNRFSGVPDRFSGSGSGTDFTLRISSVEAEDLGVYYCFQGSHVPFTFGGGTKLEIK
notes: as for B2
For B3, the binding result with TG3 and with TG13 was “no binding” throughout. Also, the “IC50 of TG2 activity” value in assay [1] was found to be 7.8e-05 mg/ml IgG per ng TG2.

B4: JE12 murine monoclonal antibody (antibody, V domains shown)
VH: EVQLQQSGPELVKPGASVKMSCKASGYRFTSYVMHWVKQKSGQGLEWIGYINPYNDGAKYNEKFKGKATLTSDKSSSTAYMELSSLTSEDSAVYYCARLSSDYWGQGTTLTVSS
VL: DVLMTQNPLSLPVSLGDQASISCRSSQSIEHINGNTYLEWYLQKPGQSPKFLIYKVSNRFSGVPDRFSGSGSGTDFTLRISRVEAEDLGIYYCFQGSHVPFTFGGGTKLEIK
notes: as for B1
As to B4, the binding result with TG3 and in the assay with TG13 was “no binding” each time.

B5: DH2 murine monoclonal antibody (antibody, V domains shown)
VH: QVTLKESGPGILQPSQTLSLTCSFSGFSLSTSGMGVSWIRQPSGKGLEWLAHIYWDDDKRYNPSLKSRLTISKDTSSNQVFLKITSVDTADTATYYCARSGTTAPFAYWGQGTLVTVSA
VL: QIVLTQSPAIMSASPGEKVTMTCSASSSVSYMYWYQQKPGSSPRLLIYDTSNLASGVPVRFSGSGSGTSYSLTISRMEAEDAATFYCQQWSSSPLTFGAGTKLELK
notes: Mouse hybridoma IgG; heavy chain amplified with primer MHCG2B, kappa light chain; also called mDH001
B5: the binding result in the assay with TG3 and with TG13 was “no binding” in each case. Also, the “IC50 of TG2 activity” value in assay [1] was 6.7e-05 mg/ml IgG per ng TG2.

B6: DD9 murine monoclonal antibody (antibody, V domains shown)
VH: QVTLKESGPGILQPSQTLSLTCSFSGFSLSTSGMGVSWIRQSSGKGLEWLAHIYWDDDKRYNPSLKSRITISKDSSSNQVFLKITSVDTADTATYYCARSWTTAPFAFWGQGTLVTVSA
VL: QIVLTQSPAIMSASPGEKVTMTCSASSSVDYMYWYQQKPGSSPRLLIYDTSNLASGVPVRFSGSGSGTSYSLTISRMGAEDAATYYCQQWNSSPLTFGAGTKLELK
notes: Mouse hybridoma IgG; heavy chain amplified with primer MHCG2A, kappa light chain; also called mDD9001
B6: the binding result with TG3 and with TG13 was “no binding” in each case. In addition, the “IC50 of TG2 activity” value in assay [1] stood at 5.24e-05 mg/ml IgG per ng TG2.

B7: AB1 murine monoclonal antibody (antibody, V domains shown)
VH: EVQLVESGGGLVKPGGSLKLSCAASGFTLSSSAMSWVRQTPDRRLEWVATISVGGGKTYYPDSVKGRFTISRDNAKNTLYLQMNSLRSEDTAMYYCAKLISLYWGQGTTLTVSS
VL: DIKMTQSPSSMYASLGERVTITCKASQDINSYLTWFQQKPGKSPKTLIYRTNRLFDGVPSRFSGSGSGQDFFLTISSLEYEDMGIYYCLQYDDFPYTFGGGTKLEIK
notes: Mouse hybridoma IgG; heavy chain amplified with constant region primer MHCG1, kappa light chain; also called mAB003
B7: the binding result in the assay with TG3 and with TG13 was “no binding” in each case. Further, the “IC50 of TG2 activity” value in assay [1] stood at 1.09e-05 mg/ml IgG per ng TG2.

B8: DC1 murine monoclonal antibody (antibody, V domains shown)
VH: EVQLVESGGGLVKPGGSLKLSCAASGFTLSTHAMSWVRQTPEKRLEWVATISSGGRSTYYPDSVKGRFTISRDNVKNTLYLQLSSLRSEDTAVYFCARLISTYWGQGTTLTVSS
VL: DITMTQSPSSIYASLGERVTITCKASQDINSYLTWFQQKPGKSPKILIYLVNRLVDGVPSRFSGSGSGQDYALTISSLEYEDMGIYYCLQYDDFPYTFGGGTKLEIK
notes: Mouse hybridoma IgG; heavy chain amplified with primer MHCG1, kappa light chain; also called mDC001
For B8, in assay [1], the “IC50 of TG2 activity” value was 1.23e-05 mg/ml IgG per ng TG2.

B9: BB7 murine monoclonal antibody (antibody, V domains shown)
VH: AVQLVESGGGLVKPGGSLKLSCAASGIIFSSSAMSWVRQTPEKRLEWVATISSGGRSTYYPDSVKGRFTVSRDSAKNTLYLQMDSLRSEDTAIYYCAKLISPYWGQGTTLTVSS
VL: AIKMTQSPSSMYASLGERVIITCKASQDINSYLTWFQQKPGKSPKTLIYLTNRLMDGVPSRFSGSGSGQEFLLTISGLEHEDMGIYYCLQYVDFPYTFGGGTKLEIK
notes: Mouse hybridoma IgG; heavy chain amplified with primer MHCG1, kappa light chain; also called mBB001
In the case of B9, the binding result with TG3 and in the assay with TG13 was “no binding” each time. Moreover, the “IC50 of TG2 activity” value in assay [1] is 1.59e-05 mg/ml IgG per ng TG2.
